B3: S. cerevisiae Arf1 (residues 18–181) I43E with a C-terminal GST tag (domain or fragment, UniProt P11076 18-181, looked up)
chain: MRILMVGLDGAGKTTVLYKLKLGEVETTIPTIGFNVETVQYKNISFTVWDVGGQDRIRSLWRHYYRNTEGVIFVVDSNDRSRIGEAREVMQRMLNEDELRNAAWLVFANKQDLPEAMSAAEITEKLGLHSIRNRPWFIQATCATSGEGLYEGLEWLSNSLKNST

Test [1] concerns the target B3. As to the kind of experiment: pull-down.
Test [2] concerns the target full-length βδ/γζ-COP complex (R. norvegicus | B. taurus, UniProt P23514 1-953; P53619 1-511; P53620 1-874; P35604 1-177). Kind of test: GTPase fluorescence assay.
A further test addresses T1, full-length γζ-COP dimer (B. taurus, UniProt P53620 1-874; P35604 1-177).
T1 sequence (looked up) 1: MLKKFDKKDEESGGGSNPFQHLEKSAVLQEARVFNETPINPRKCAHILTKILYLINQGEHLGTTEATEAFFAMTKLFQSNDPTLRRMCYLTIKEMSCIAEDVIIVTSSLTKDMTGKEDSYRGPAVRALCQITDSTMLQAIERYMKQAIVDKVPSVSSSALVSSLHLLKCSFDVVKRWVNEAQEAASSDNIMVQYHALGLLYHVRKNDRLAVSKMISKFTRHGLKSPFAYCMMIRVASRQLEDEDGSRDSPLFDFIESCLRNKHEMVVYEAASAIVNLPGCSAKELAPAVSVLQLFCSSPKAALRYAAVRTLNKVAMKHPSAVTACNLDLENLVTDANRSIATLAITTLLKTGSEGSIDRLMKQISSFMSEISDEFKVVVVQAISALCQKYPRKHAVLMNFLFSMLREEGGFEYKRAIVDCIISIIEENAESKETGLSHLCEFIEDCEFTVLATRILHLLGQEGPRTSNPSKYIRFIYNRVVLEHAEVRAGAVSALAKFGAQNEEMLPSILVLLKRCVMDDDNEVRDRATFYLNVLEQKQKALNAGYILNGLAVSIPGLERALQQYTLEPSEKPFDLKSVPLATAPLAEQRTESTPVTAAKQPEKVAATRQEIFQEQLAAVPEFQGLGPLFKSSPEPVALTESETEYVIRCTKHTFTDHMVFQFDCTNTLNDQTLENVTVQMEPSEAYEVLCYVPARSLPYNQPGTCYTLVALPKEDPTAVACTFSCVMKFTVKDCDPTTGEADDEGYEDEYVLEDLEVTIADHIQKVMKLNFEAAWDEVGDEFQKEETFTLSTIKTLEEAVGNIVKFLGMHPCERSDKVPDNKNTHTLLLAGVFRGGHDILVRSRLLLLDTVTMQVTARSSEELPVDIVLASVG
T1 sequence (looked up) 2: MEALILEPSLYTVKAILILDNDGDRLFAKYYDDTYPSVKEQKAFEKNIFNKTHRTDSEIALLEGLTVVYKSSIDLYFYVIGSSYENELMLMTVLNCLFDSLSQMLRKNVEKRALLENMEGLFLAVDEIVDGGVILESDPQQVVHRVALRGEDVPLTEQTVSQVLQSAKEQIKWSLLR
As to the kind of experiment: pull-down.

For test [3], the target named is T2, γζ-COP core complex (bovine γ-COP 1–355 plus ζ-COP 1–153) (B. taurus, UniProt P53620 1-355; P35604 1-153).
T2 sequence (looked up) 1: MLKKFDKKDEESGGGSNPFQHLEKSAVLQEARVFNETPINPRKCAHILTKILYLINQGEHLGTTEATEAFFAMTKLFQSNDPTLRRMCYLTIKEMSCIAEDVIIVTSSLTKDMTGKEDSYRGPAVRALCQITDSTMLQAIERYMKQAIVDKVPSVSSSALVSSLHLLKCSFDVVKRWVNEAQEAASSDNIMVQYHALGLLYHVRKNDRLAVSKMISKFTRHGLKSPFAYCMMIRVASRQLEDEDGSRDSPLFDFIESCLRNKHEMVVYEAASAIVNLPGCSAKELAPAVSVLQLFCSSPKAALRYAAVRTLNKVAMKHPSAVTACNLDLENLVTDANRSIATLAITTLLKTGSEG
T2 sequence (looked up) 2: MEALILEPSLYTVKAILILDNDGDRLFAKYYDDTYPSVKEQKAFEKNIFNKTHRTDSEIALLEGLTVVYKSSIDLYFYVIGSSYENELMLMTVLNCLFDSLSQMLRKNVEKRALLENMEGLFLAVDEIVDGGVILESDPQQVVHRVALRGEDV
Kind of test: crystal structure.

B1: full-length βδ-COP dimer (complex, R. norvegicus | B. taurus)
chain 1: MTAAENVCYTLINVPMDSEPPSEISLKNDLEKGDVKSKTEALKKVIIMILNGEKLPGLLMTIIRFVLPLQDHTIKKLLLVFWEIVPKTTPDGRLLHEMILVCDAYRKDLQHPNEFIRGSTLRFLCKLKEAELLEPLMPAIRACLEHRHSYVRRNAVLAIYTIYRNFENLIPDAPELIHDFLVNEKDASCKRNAFMMLIHADQDRALDYLSTCIDQVQTFGDILQLVIVELIYKVCHANPSERARFIRCIYNLLQSSSPAVKYEAAGTLVTLSSAPTAIKAAAQCYIDLIIKESDNNVKLIVLDRLVELKEHPAHERVLQDLVMDILRVLSTPDLEVRKKTLQLALDLVSSRNVEELVIVLKKEVIKTNNVSEHEDTDKYRQLLVRTLHSCSVRFPDMAANVIPVLMEFLSDSNEAAAADVLEFVREAIQRFDNLRMLIVEKMLEVFHAIKSVKIYRGALWILGEYCSTKEDIQSVMTEVRRSLGEIPIVESEIKKEAGELKPEEEITVGPVQKLVTEMGTYATQSALSSSRPTKKEEDRPPLRGFLLDGDFFVAASLATTLTKIALRYVALVQEKKKQNSFVAEAMLLMATILHLGKSSLPKKPITDDDVDRISLCLKVLSECSPLMNDIFNKECRQSLSQMLSAKLEEEKLSQKKESEKRNVTVQPDDPISFMQLTAKNEMNCKEDQFQLSLLAAMGNTQRKEAADPLASKLNKVTQLTGFSDPVYAEAYVHVNQYDIVLDVLVVNQTSDTLQNCTLELATLGDLKLVEKPSPLTLAPHDFANIKANVKVASTENGIIFGNIVYDVSGAASDRNCVVLSDIHIDIMDYIQPATCTDAEFRQMWAEFEWENKVTVNTNVTDLNDYLQHILKSTNMKCLTPEKALSGYCGFMAANLYARSIFGEDALANVSIEKPVHQGPDAAVTGHIRIRAKSQGMALSLGDKINLSQKKTSL
chain 2: MVLLAAAVCTKAGKAIVSRQFVEMTRTRIEGLLAAFPKLMNTGKQHTFVETESVRYVYQPMEKLYMVLITTKNSNILEDLETLRLFSRVIPEYCRALEENEISEHCFDLIFAFDEIVALGYRENVNLAQIRTFTEMDSHEEKVFRAVRETQEREAKAEMRRKAKELQQARRDAERQGKKAPGFGGFGSSTVSGGSTTSMITETIIETDKPKVAPAPARPSGPSKALKLGAKGKEVDNFVDKLKSEGENIISSNMGKRTSEATKVHAPPINMESVHMKIEEKITLTCGRDGGLQNMELHGMIMLRISDDKFGRIRLHVENEDKKGVQLQTHPNVDKKLFTAESLIGLKNPEKSFPVNSDVGVLKWRLQTTEESFIPLTINCWPSESGNGCDVNIEYELQEDNLELNDVVITIPLPSGVGAPVIGEIDGEYRHDSRRNTLEWCLPVIDAKNKSGSLEFSIAGQPNDFFPVQVSFISKKNYCNIQVTKVTQVDGNSPVRFSTETTFLVDKYEIL
For the molecule B1, the “percent binding capacity relative to wild-type Arf1” value in test [1] amounted to 90%.

B2: H. sapiens Arf1 (residues 18–181) (domain or fragment)
chain: not shown
For B2, the Kd in test [2] is approximately 1000 nM.
Consider B3, for which the binding result with full-length γζ-COP dimer is “binds”.

B4: S. cerevisiae Arf1 (residues 18–181) complexed with GppNHp (domain or fragment, UniProt P11076 18-181, looked up)
chain: MRILMVGLDGAGKTTVLYKLKLGEVITTIPTIGFNVETVQYKNISFTVWDVGGQDRIRSLWRHYYRNTEGVIFVVDSNDRSRIGEAREVMQRMLNEDELRNAAWLVFANKQDLPEAMSAAEITEKLGLHSIRNRPWFIQATCATSGEGLYEGLEWLSNSLKNST
For B4, the binding result in test [3] was “binds”.
